# Assay: soluble on expression in E. coli; label from the status in PepcDB or PDB records
row,Sequence,soluble on expression in E. coli
1,MEQYDQLYRLYKSVDTTTLRGYQEFVDLFPPLSSTVALEQWETASDRLDALKADITDEFPGTGETYAEIAARLTRDEAFTALDLYSKYDRSVNVLVLDVDETLRSAGDTDNEIPRDTLYLLTQFHEAGIPIVVCTGQTLENVKGFMIQGLGNDLVSSGQMSIVYESGNGVFTPKHGEDTKRLLYERLDGAVVDVFETVRRRVLSEAPDAVGKRCHLQGNEFNVTLKPNAEVGSDNAVEIIDESLCYLCGLVGDAIAAQVDAEVDDPAGYARAYFSRDPEILDVLEAGGLPTHADIEDAPEAFRDILERVDLGYYEGDAAELVSLELDKSAGVEEAFDVLGIDDPFALVMGDSKSDLRVMRWVDENDAGIAAAPAHSSPDVLDHVSSRDDLVYEAGDASTVLRTIYGISLVEQLDEQGE,soluble
2,GSHMASMTGGQQMGRGSDSSNAITIENNTLWTGAKPSANCVIKEGEDSPDCKLTLVLVKNGGLINGYITLMGASEYTNTLFKNNQVTIDVNLAFDNTGQIITYLSSLKSNLNFKDNQNMATGTITSAKGFMPSTTAYPFITYATETLNEDYIYGECYYKSTNGTLFPLKVTVTLNRRMLASGMAYAMNFSWSLNAEEAPETTEVTLITSPFFFSYIREDD,soluble
3,MGSDKIHHHHHHMAPASFSQITGQSVGKIGVLFLLLMVLWSANLCNSSDITPLSANRANVGQMVQAFTFDDLFKEDGPSSDLPQRVFRQTSSWRGFSQLEFAETIASPKHASKLRLRSELSNLGQLSPNVKWKLSARIDYDAIYDLSDFYSRQVRRDQRFELFLRENYLDFSIADFDVRVGRQHIVWGEMVGLFFADVVSAKDMREFVLPDFDILRIPQWAVRTEYSKNDFHADLIWIPFASLDEIGRPGADFYPFKLPVAAPVSFLKEDRSGRNVAHSNYGIRLSQLTNGWDVSAFYYHSLDATPTFHRISQPWEPLLFQARHGEIDQAGGTVTKDLGSAVLKGEFVYTHGRRFNVTRPTAADGLVRQDTIDYALGLDFTLPSDIRLNLQFFQRAYLNYDRDIFQDRLENGGSIFLQGDLWRDFQGQILLIHSFNRNEWMLRPRLTWNFARNWKLAAGADIFNGPPTGLFGRFDSSDRVYTELRFSF,not soluble
4,SLPIFEARVKVGISSSWVTSRKVSWRDAIAQIESDRIVVKYLKMGEVVGEDSFPFSALIDLGVRIPDELKLNPEKDHFGIKFYIPGRGELLVIFTIEENLLIYDEKKFSEFVHKVFEVLINGKTVMLQLARIIGGAVNMESKWEEGWLRVIKVKSARTQKTERSIVVIIKDKRPVSIFSDLEDIEIEEVDMNGKRVRAWKIRHFHIDQSVTSYLYIPDKQTQLYVLRYLLKYNPAIMEFIMKVSDDFPTLKSEFQEIMEKEIKELEALDEMEKQILVALYSGINPLELHQFLGVSEKEIEEIYDRMIDKGLLKIVMIRKIVDLTNEGRKIVNKLLKYGLVSM,soluble
5,MTDEAFAQADPEWLALIRAAREWLSGPLGQLLLEEERRVLDEELGRYFGGYLVHYGPSAQNPPVAPQVQRNVRLGAPLPGVEIVCEEQAWPLSEHAADVVVLQHGLDFCLSPHGLLREAASSVRPGGHLLIIGINPWSAWGVRHVFARDALRKARCISSSRVADWLNLLGFALEKRRFGCYRPPLASAAWQSRLAGLESLGEGRQSPGGGFYLLVARKLVVGLRPLRQVRRDPIGKLIPMPMAKVSRNTQDCS,not soluble
6,MQKVESIIIGGGPCGLSAAIEQKRKGIDTLIIEKGNVVESIYNYPTHQTFFSSSDKLSIGDVPFIVEESKPRRNQALVYYREVVKHHQLKVNAFEEVLTVKKMNNKFTITTTKDVYECRFLTIATGYYGQHNTLEVEGADLPKVFHYFKEAHPYFDQDVVIIGGKNSAIDAALELEKAGANVTVLYRGGDYSPSIKPWILPNFTALVNHEKIDMEFNANVTQITEDTVTYEVNGESKTIHNDYVFAMIGYHPDYEFLKSVGIQINTNEFGTAPMYNKETYETNIENCYIAGVIAAGNDANTIFIENGKFHGGIIAQNMLAKKQTPLES,soluble
7,SSFVGENSGVKMGSEDWEKDEPQCCLEDPAVSPLEPGPSLPAMNFVHTSPKVKNLNPKKFSIHDQDHKVLVLDSGNLIAVPDKNYIRPEIFFALASSLSSASAEKGSPILLGVSKGEFCLYCDKDKGQSHPSLQLKKEKLMKLAAQKESARRPFIFYRAQVGSWNMLESAAHPGWFICTSCNCNEPVGVTDKFENRKHIEFSFQPVCKAEMSPSEVSD,soluble

# — the DeepSol protein solubility set
